Experimental findings from US20210155689A1 (SHANGHAI PHARMAEXPLORER, published 2021) are described below.

Numbering of substitutions follows the chain as printed.

Assay [1] addresses T1, monkey LAG-3 on cells (HEK293-cLAG-3 stable cell line) (monkey, UniProt P18627 24-525 (human entry)).
T1 construct: Full-length monkey (Chinese monkey) LAG-3 gene expressed on HEK293 cells
T1 chain: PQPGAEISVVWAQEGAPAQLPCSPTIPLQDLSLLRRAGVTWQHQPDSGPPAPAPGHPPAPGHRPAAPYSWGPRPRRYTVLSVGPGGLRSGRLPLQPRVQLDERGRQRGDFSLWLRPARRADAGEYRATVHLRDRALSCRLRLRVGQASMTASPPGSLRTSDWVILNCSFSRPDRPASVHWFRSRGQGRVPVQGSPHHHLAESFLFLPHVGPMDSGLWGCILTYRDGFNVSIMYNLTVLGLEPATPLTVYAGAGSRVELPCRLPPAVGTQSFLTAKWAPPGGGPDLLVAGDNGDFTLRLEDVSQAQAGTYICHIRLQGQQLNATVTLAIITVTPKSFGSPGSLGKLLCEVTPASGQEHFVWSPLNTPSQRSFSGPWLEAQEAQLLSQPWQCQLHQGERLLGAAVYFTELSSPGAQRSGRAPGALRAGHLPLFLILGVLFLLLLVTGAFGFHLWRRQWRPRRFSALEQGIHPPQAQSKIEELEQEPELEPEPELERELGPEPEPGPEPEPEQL
The assay is described as follows: FACS, HEK293-cLAG-3, antibody 0.320 nM. The text has this: (§1) The pIRES plasmid with the monkey-derived full-length gene was transfected into the HEK293 cell line to construct a HEK293 stable cell line containing monkey LAG-3 (herein referred to as HEK293-cLAG-3 stable cell line). The HEK293-hLAG-3 stable cell line and HEK293-cLAG-3 stable cell line were expanded in a T-75 cell culture flask to a 90% confluence. The medium was aspirated, and the cells were washed with HBSS (Hanks' Balanced Salt Solution) 1-2 times, then treated with a enzyme-free cell dissociation fluid (Versene solution: Life technology) and the cells were collected. The cells were washed with HBSS buffer for 1-2 times. After counted, the cells were diluted with HBSS to 1-2×10⁶ cells per ml, added with 1% goat serum blocking solution, incubated on ice for 20-30 minutes, and then washed with HBSS for 2 times by centrifugation. The collected cells were suspended in the FACS buffer (HBSS+1% BSA) to 2×10⁶ cells/ml, added as 100 microliters per well to a 96-well FACS reaction plate, added with 100 microliters per well of the antibody sample to be tested, incubated on ice for 1-2 hours. The plate was washed twice with the FACS buffer by centrifugation, added with 100 microliters of fluorescent (Alexa 488)-labeled secondary antibodies per well, and incubated on ice for 0.5-1.0 hours. The plate was washed 2-3 times with FACS buffer by centrifugation, added with 100 μl fixative solution (4% Paraformaldehyde) per well to suspend the cells. 5-10 minutes later, it was washed 1-2 times with FACS buffer by centrifugation. The cells were suspended with 100 microliters of FACS buffer, FACS (FACSCalibur, BD) was used for detection and the results were analyzed.
For orientation: In flow cytometry, cells or beads pass a laser one at a time.

In assay [2] the target is T2, human LAG-3 on cells (HEK293-hLAG-3 stable cell line) (human, UniProt P18627 23-525).
T2 sequence: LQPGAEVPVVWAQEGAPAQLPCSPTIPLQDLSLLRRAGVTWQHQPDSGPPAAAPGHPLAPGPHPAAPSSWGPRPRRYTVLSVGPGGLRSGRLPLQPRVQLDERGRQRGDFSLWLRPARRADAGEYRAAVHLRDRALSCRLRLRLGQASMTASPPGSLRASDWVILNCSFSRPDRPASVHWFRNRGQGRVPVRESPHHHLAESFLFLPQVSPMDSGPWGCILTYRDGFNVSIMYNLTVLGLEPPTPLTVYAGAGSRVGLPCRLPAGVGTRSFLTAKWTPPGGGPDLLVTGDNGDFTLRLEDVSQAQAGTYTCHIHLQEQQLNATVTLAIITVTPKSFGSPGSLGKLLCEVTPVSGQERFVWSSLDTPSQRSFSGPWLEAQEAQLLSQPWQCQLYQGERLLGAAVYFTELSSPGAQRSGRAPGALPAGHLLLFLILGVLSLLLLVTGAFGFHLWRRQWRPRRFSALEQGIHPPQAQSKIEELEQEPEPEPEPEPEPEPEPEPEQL
The assay is described as follows: FACS, HEK293-hLAG-3, antibody 0.000 nM.
Description: as §1

Assay [3] has as its target T3, human LAG-3 protein with hFc tag (hLAG-3-hFc protein) (human, UniProt P18627 23-450).
T3 construct: also called immunogen 1; LAG-3 extracellular domain protein; not shown: human IgG Fc fragment (hFc) of the pCpC vector
T3 sequence: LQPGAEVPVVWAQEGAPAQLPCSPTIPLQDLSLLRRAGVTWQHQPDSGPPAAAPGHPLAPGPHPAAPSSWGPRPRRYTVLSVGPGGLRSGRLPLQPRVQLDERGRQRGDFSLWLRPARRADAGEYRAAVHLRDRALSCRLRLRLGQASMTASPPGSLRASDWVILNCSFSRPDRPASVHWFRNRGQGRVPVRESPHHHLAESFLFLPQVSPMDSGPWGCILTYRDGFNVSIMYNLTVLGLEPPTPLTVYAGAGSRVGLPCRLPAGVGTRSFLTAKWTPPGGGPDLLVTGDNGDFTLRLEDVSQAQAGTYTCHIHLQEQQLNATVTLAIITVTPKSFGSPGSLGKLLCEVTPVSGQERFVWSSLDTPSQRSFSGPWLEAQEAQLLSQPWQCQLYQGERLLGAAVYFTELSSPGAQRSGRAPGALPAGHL
The assay can be described thus: ELISA, hLAG-3-hFc coated; 6.6667 nM. As to the method: The plate was sealed with plastic film and incubated overnight at 4° C. The plate was washed 2 times with the plate washing solution (PBS+0.01% Tween20) on the next day, and added with the blocking solution (PBS+0.01% Tween20+1% BSA) and blocked at room temperature for 1-2 hours. The blocking solution was poured out, and the plate was added with 50-100 μl of the antibody sample to be tested to each well, incubated at 37° C. for 1-2 hours, and washed 2-3 times with a plate washing solution (PBS+0.01% Tween20). HRP (horseradish peroxidase) labeled secondary antibody was added, and the plate was incubated at 37° C. for 1-2 hours, and washed 2-3 times with a plate washing solution (PBS+0.01% Tween20). 100 μl of TMB substrate was added to each well. After incubated at room temperature for 15-30 minutes, the plate was added with 100 μl of stop solution (1.0N HCl) to each well.
(An ELISA detects its analyte on a solid surface through an enzyme-linked reagent.)

Assay [4] has as its target T4, human LAG-3 (full length, on the cell surface) (human, UniProt P18627 23-525).
T4 construct: Full-length human LAG-3 expressed on cells; also called HEK293-hLAG-3; HEK293 cells transfected with LAG-3 gene
T4 sequence: T2 sequence
The assay can be described thus: FACS, HEK293-hLAG-3; 1.600 nM.
Description: as §1

B1: 556F6B8 mouse-human chimeric antibody (antibody, V domains shown)
VH: RVQLKQSGPGLVQPSQSLSITCTVSGFSLIKYGVHWVRQSPGEGLEWLGVIWRGGITDYNAAFMSRLSITKDNSKSQVFFKMNSLQADDTAIYYCAKWDGPLAMDYWGQGTSVTVSS
VL: DIVMTQSHKFLSTSVGDRVSITCKASQDVGTTVAWYQQKPGQSPKLLIYWASTRHTGVPDRFTGSGSGTDFTLTISNVQSEDLADYFCQQYSSYPYTFGGGTKLEIK
notes: also called mAb123-556F6B8; 556F8B8
With B1, the Mean fluorescence intensity in assay [1] was 8.37; in assay [2], 3.3.

B2: 556F6B8 (LAG-3 mouse-human chimeric antibody) (antibody, V domains shown)
VH: B1 VH
VL: B1 VL
notes: also called 556F8B8
For the molecule B2, the OD450 in assay [3] worked out at 3.73 OD450.

B3: 556F6B8 (mouse antibody purified from hybridoma) (antibody, V domains shown)
VH: B1 VH
VL: B1 VL
notes: also called mAb123-556F6B8
For the molecule B3, the Mean fluorescence intensity in assay [4] is 43.5 MFI.

B4: 405B8H3 (mouse antibody purified from hybridoma) (antibody, V domains shown)
VH: QVQLQQSGAELVRPGASVTLSCKASGYTFTDYEMHWVKQTPVHGLEWIGATDPETGNSAYNQKFKGKAIMTADKSSSTAYMELRSLTSEDSAVYYCISTGWNDWGQGTSLTVSS
VL: DIKMTQSPSSMYASLGERVTITCKASQDINSYLSWFQQKPGKSPKTLIYRADRLLDGVPSRFSGSGSGQDYSLTISSLEYGDMGIYYCLQYDEFPYTFGGGTKLEIK
notes: also called mAb103-405B8H3; 405B81-13
Take B4: the Mean fluorescence intensity in assay [4] was found to be 99.4 MFI.

B5: 105F1E10 mouse-human chimeric antibody (antibody, V domains shown)
VH: EVQLQQSGPELVKPGASVKMSCRASGYTFTDFKMHWMKQSHGKSLEWIGYIAPNNGGTAYNQKFRGKATLTVNESSNTAYMELRSLTSEDSAVYYCVDWDDVDYWGQGTTLTVSS
VL: B4 VL with P40S, D52N, L55V, G81E, D92V, Y96L, G100A, I106L
notes: also called mAb009-105F1E10
Consider B5, for which the Mean fluorescence intensity was 5.72 in assay [1] and 2.6 in assay [2].

B6: 405B8H3 (LAG-3 mouse-human chimeric antibody) (antibody, V domains shown)
VH: B4 VH
VL: B4 VL
notes: also called mouse-human chimeric antibody 405B8H3
Turning to B6, in assay [3], the OD450 worked out at 3.54 OD450.

B7: 405B8H3 mouse-human chimeric antibody (antibody, V domains shown)
VH: B4 VH
VL: B4 VL
notes: also called mAb103-405B8H3
In the case of B7, the figures for the Mean fluorescence intensity in assay [1] and in assay [2] were 10.3 and 2.8, respectively.

B8: 105F1E10 (LAG-3 mouse-human chimeric antibody) (antibody, V domains shown)
VH: B5 VH
VL: B4 VL with P40S, D52N, L55V, G81E, D92V, Y96L, G100A, I106L
In turn, B8 registered an OD450 in assay [3] of 3.53 OD450.

B9: 105F1E10 (mouse antibody purified from hybridoma) (antibody, V domains shown)
VH: B5 VH
VL: B4 VL with P40S, D52N, L55V, G81E, D92V, Y96L, G100A, I106L
notes: also called mAb009-105F1E10
In assay [4], B9 showed a Mean fluorescence intensity of 86.2 MFI.

B10: 409B11E12 mouse-human chimeric antibody (antibody, V domains shown)
VH: B4 VH with P41T, G56S, N57Y, M70L, S98A
VL: B4 VL with I2L, D52N, G81E
notes: also called mAb104-409B11E12
B10: the figures for the Mean fluorescence intensity in assay [1] and in assay [2] were 11.6 and 2.8, respectively.

B11: 409D4E10 (mouse antibody purified from hybridoma) (antibody, V domains shown)
VH: B4 VH with Y27N, G56D, S58T, M70L, A72T, S98T, T99S
VL: B4 VL with D52N, G81E, D92N
notes: also called mAb112-409D4E10
Molecule B11 registered a Mean fluorescence intensity in assay [4] of 48 MFI.

B12: 409D4E10 (LAG-3 mouse-human chimeric antibody) (antibody, V domains shown)
VH: B4 VH with Y27N, G56D, S58T, M70L, A72T, S98T, T99S
VL: B4 VL with D52N, G81E, D92N
B12: the OD450 in assay [3] is 3.73 OD450.

B13: 409B11E12 (LAG-3 mouse-human chimeric antibody) (antibody, V domains shown)
VH: B4 VH with P41T, G56S, N57Y, M70L, S98A
VL: B4 VL with I2L, D52N, G81E
Turning to B13, the OD450 in assay [3] turned out to be 3.64 OD450.

B14: 409D4E10 mouse-human chimeric antibody (antibody, V domains shown)
VH: B4 VH with Y27N, G56D, S58T, M70L, A72T, S98T, T99S
VL: B4 VL with D52N, G81E, D92N
notes: also called mAb112-409D4E10
Turning to B14, the Mean fluorescence intensity in assay [1] was 8.96; in assay [2], 3.

B15: 409B11E12 (mouse antibody purified from hybridoma) (antibody, V domains shown)
VH: B4 VH with P41T, G56S, N57Y, M70L, S98A
VL: B4 VL with I2L, D52N, G81E
notes: also called mAb104-409B11E12
As to B15, the Mean fluorescence intensity in assay [4] turned out to be 55.6 MFI.
